Assay results taken from publication PMC13572408.

Target: His6-AstR (Acinetobacter baumannii ATCC 17978VU)
Assay: SEC; purified His6-AstR; size estimated with standard curves; Size Exclusion Buffer (50 mM Tris, 300 mM NaCl, pH 8)

stoichiometry N: 2
Substance: His6-AstR (natural protein)
